The source of these data is patent US20240199740A1 (Ablynx, published 2024).

Substitutions are numbered along the chain they refer to.

Test [1] deals with T1, human TCR/CD3 on purified primary human T cells (human, UniProt P01848 1-140; P01850 1-176).
T1 construct: whole, on cells; Native TCR alpha/beta with the CD3 chains on T cells isolated from buffy coat blood; also called purified primary T cells
Description: flow cytometry, purified primary human T cells. For orientation: Flow cytometry measures light scatter and fluorescence of single cells or particles in a stream.
Description: Dose-dependent binding of the purified monovalent anti-TCR Nanobodies to human TCRα/β (2XN9)/CD3 expressed on CHO-K1 cells and to purified primary human T cells was evaluated by flow cytometry. In brief, cells were harvested and transferred to a V-bottom 96-well plate (1×10⁵ cells/well) and serial dilutions of Nanobodies (starting from 1 pM) were allowed to associate for 30 minutes at 4° C. in FACS buffer. […] After incubation, cells were washed 3 times with FACS Buffer. Subsequently, cells were resuspended in FACS buffer supplemented with 5 nM TOPRO3 (Molecular Probes, T3605) to distinguish live from dead cells, which are removed during the gating procedure. Cells were analysed using a FACS Array flow cytometer (BD Biosciences) and Flowing Software. First a P1 population which represented more than 80% of the total cell population was selected based on FSC-SSC distribution. In this gate, 10000 cells were counted during acquisition. From this population the TOPRO+ cells (dead cells) were excluded and the median PE value was calculated.

In test [2] the target is T2, human CD3 expressed on HEK293H cells (human, UniProt P04234 22-171; P09693 23-182; P07766 23-207; P20963 22-164).
T2 construct: also called HEK293H CD3; HEK293H human CD3
Description: flow cytometry, HEK293H human CD3 cells. The source says: The parental HEK293H cell line was included as TCR/CD3 negative cell line.

Test [3] concerns the target T3, soluble recombinant cynomolgus TCR α/β-zipper protein (cynomolgus/rhesus monkey).
T3 construct: Made in house in CHOK1SV cells; also called recombinant cynomolgus soluble TCRα/β-zipper protein; cynomolgus/rhesus monkey TCR α/β; not shown: the zipper protein (O'Shea et al. 1993) fused C-terminally to each chain, and any linker to it
T3 alpha: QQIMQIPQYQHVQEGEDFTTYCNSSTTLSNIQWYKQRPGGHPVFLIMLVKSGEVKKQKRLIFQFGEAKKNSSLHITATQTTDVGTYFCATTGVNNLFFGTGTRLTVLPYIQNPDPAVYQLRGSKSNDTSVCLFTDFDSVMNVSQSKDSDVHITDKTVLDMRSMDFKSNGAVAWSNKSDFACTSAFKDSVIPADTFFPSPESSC
T3 beta: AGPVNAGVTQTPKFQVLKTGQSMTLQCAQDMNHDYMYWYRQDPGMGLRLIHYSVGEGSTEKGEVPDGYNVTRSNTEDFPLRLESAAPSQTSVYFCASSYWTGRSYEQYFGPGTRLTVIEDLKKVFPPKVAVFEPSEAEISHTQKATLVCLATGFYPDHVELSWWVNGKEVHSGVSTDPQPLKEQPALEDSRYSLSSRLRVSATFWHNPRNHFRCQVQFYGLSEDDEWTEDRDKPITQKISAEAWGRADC
Description: BLI (Octet RED384), cynomolgus TCR-zipper protein immobilized. The protocol:
Binding affinities were measured using Bio-Layer Interferometry (BLI) on an Octet RED384 instrument (Pall ForteBio Corp.). […] For kinetic analysis, sensors were first dipped into running buffer (10 mM Hepes, 150 mM NaCl, 0.05% p20, pH7.4 from GE Healthcare Life Sciences) to determine baseline setting. […] Affinity constants (KD) were calculated applying a 1:1 interaction model using the ForteBio Data Analysis software.

Test [4] deals with T3, soluble recombinant cynomolgus TCR …. Description: ELISA, directly coated soluble cynomolgus TCR-zipper protein. The protocol:
Quality of the TCR α/β zipper proteins was assessed in an ELISA binding assay. […] After an overnight incubation, plates were washed and blocked with PBS+1% casein for 1 h at room temperature. […] The reaction was stopped with 2M H₂SO₄ and the dose dependent binding was determined by measuring the OD at 450 nm using the Tecan sunrise 4 (FIG. 2).
(ELISA stands for enzyme-linked immunosorbent assay.)

In test [5] the target is T4, human CD123 (human, UniProt P26951 19-378). The test is described as follows: cell-based or functional assay.
Test [6] concerns the target T4, human CD123. The test is described as follows: cell-based or functional assay. The source holds these as a separate data set.
Test [7] has as its target T4, human CD123. Description: cell-based or functional assay. The source holds these as a separate data set.
In test [8] the target is T4, human CD123. The test is described as follows: cell-based or functional assay. This is another data set of the same source.
Test [9] concerns the target T5, human CD123 expressed on cells (human, UniProt P26951 19-378). The test is described as follows: cell-based or functional assay.
Test [10] concerns the target T5, human CD123 expressed on cells. The test is described as follows: flow cytometry competition, CHO Flp-In huCD123 cells, competitor A0110056A10-Alexa647 (0.9 nM).
Description: (§1) Next to binding to the MOLM-13 and CHO Flp-In huCD123 cells, binding to cyno CD123 transfected HEK Flp-In cells was assessed.
In test [11] the target is T6, cynomolgus CD123 expressed on HEK Flp-In cells (cynomolgus).
T6 construct: EHH61867.1; also called cyCD123; cyno CD123
T6 chain: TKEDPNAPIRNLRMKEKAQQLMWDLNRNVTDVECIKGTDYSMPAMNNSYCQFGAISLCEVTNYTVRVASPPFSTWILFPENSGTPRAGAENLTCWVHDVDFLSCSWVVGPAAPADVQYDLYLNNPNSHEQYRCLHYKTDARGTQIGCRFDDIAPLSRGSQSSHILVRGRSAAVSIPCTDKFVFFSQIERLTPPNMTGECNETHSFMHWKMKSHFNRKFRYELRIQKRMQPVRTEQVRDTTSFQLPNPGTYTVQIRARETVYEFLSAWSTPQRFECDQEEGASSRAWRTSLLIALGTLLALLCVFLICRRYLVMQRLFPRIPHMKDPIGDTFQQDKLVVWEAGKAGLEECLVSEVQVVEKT
The test is described as follows: flow cytometry competition, HEK Flp-In cyCD123 cells, competitor A0110056A10-Alexa647 (0.9 nM).
Description: as §1

In test [12] the target is T7, cynomolgus TCR/CD3 expressed on cells (cynomolgus).
T7 construct: whole, on cells; Native complex with CD3 chains; the cell type is named under assay or readout; also called cyno TCR/CD3; CD3/TCR expressed on HSC-F
Description: flow cytometry competition, HSC-F cells, competitor T017000099 (500 nM).
Description: Cells were washed and incubated with Propidium Iodine to stain for dead cells, which are then removed during the gating procedure. The cells were then analysed via a BD FACSArray. First a P1 population which represented more than 80% of the total cell population was selected based on FSC-SSC distribution. In this gate, 10000 cells were counted during acquisition. From this population the PI+ cells (dead cells) were excluded and the median APC value was calculated.

Test [13] has as its target T7, cynomolgus TCR/CD3 expressed on cells. The test is described as follows: cell-based or functional assay.
The target is the same in test [14]. The test is described as follows: cell-based or functional assay. This is another data set of the same source.
Test [15] has as its target T5, human CD123 expressed on cells. Description: cell-based or functional assay. This is another data set of the same source.
The target is the same in test [16]. The test is described as follows: cell-based or functional assay. The source holds these as a separate data set.
The target is the same in test [17]. The test is described as follows: flow cytometry competition, MOLM-13 cells, competitor A0110056A10-Alexa647 (0.4 nM).
Description: as §1
The target is the same in test [18]. Description: cell-based or functional assay. The source holds these as a separate data set.

T4 sequence (P26951 19-378 limits assumed): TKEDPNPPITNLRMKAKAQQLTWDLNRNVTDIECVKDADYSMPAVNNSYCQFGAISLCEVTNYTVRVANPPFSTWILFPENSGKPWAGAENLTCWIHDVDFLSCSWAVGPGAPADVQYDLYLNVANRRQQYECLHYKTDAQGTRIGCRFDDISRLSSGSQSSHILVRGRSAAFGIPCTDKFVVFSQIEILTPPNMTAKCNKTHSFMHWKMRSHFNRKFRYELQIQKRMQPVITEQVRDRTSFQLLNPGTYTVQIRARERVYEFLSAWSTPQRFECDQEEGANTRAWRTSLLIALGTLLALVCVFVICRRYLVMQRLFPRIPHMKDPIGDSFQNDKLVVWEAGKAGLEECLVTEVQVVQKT
T1 sequence (P01848 whole entry, chain 1 of 2): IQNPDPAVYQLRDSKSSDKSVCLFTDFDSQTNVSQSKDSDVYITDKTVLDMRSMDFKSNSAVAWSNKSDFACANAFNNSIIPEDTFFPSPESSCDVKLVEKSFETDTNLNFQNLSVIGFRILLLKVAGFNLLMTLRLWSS
T1 sequence (P01850 whole entry, chain 2 of 2): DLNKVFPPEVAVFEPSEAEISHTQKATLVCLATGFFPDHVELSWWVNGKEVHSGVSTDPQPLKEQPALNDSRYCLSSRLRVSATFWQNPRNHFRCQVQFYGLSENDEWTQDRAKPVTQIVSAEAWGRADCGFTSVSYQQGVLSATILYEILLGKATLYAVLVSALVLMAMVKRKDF
T2 sequence (P04234 22-171 limits assumed, chain 1 of 4): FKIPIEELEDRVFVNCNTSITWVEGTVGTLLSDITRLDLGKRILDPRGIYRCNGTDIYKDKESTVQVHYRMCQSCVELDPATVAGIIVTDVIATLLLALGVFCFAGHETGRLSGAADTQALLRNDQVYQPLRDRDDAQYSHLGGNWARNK
T2 sequence (P09693 23-182 limits assumed, chain 2 of 4): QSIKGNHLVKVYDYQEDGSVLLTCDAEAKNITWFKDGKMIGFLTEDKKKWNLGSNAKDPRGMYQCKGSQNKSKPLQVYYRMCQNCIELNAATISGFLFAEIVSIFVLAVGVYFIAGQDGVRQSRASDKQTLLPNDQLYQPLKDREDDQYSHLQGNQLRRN
T2 sequence (P07766 23-207 limits assumed, chain 3 of 4): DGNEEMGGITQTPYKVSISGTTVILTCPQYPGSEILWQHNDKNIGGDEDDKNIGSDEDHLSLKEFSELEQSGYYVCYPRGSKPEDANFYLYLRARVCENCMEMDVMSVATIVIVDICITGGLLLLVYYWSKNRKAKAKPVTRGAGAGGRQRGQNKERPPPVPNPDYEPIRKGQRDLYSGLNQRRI
T2 sequence (P20963 22-164 limits assumed, chain 4 of 4): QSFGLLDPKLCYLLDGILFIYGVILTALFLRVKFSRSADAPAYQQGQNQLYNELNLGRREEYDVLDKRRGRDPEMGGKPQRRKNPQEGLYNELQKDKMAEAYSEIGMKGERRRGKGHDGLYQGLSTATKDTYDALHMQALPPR

B1: T0170055A02 (VHH)
VHH: EVQLVESGGGLVQPGGSLRLSCAASGDVHKINILGWYRQAPAKEREMVAHITIGDATDYADSAKGRFTISRDEAKNMVYLQMNSLKPEDTAVYFCRAYSRIYPYNYWGQGTLVTVSS
notes: also called T0170PMP055A02; T01700055A02; not shown: C-terminal triple Flag, His6 tag
The EC50 is the midpoint of the concentration-response curve. The Kd is the equilibrium constant for the complex coming apart. As for B1, the EC50 was determined as 91 nM in test [1] and 160 nM in test [4]. Further, the binding result in [2] is given as “no binding (tested: 1e-6 M)”. Also, in test [3], the Kd came to 210 nM.

B2: T0170056G05 (VHH)
VHH: B1 VHH with A23V, I33F, A42G, M47K, T52S, A56Q, A74S, Y98F, N105D
notes: Monovalent anti-TCR Nanobody; also called T0170PMP056G05; T01700056G05; not shown: C-terminal triple Flag, His6 tag
As to B2, the figures for the EC50 in test [1] and in test [4] were 91 nM and 77 nM, respectively. Besides, the binding result in test [2] is given as “no binding (tested: 1e-6 M)”. For the same molecule, the Kd in test [3] is 150 nM.

B3: T017000139 (bispecific antibody)
chain: DVQLVESGGGLVQPGGSLRLSCVASGDVHKINFLGWYRQAPGKEREKVAHISIGDQTDYADSAKGRFTISRDESKNMVYLQMNSLKPEDTAVYFCRAFSRIYPYDYWGQGTLVTVSSGGGGSGGGGSGGGGSGGGGSGGGGSGGGGSGGGGSEVQLVESGGGLVQAGGPLRLSCAASGRTFSSYVMGWFRQAPGKEREFVAAIYWSNGKTQYTDSVKGRFTISGDNAKNTVYLQMNSLNPEDTAVYYCVADKDETGFRTLPIAYDYWGQGTLVTVSSGGGGSGGGGSGGGGSGGGGSGGGGSGGGGSGGGGSEVQLVESGGGLVQAGGSLRLSCAASGITSKINDMGWYRQTPGNYREWVASITATGTTNYRDSVKGRFTISRDNAKSTVYLQMNSLKPEDTTVYYCNTFPPISNFWGQGTLVTVSSA
Turning to B3, in the test with human CD123 [5], the “% lysis, redirected cynomolgus T cell mediated killing of KG1a cells, flow cytometry, E:T 10:1” value amounted to 34%; the “% lysis, redirected human T cell mediated killing of KG1a cells, flow cytometry, E:T 10:1” value was 67%; the “EC50 (M), redirected cynomolgus T cell mediated killing of KG1a cells, flow cytometry, E:T 10:1” value was found to be 1.7e-11 M; the “EC50 (M), redirected human T cell mediated killing of KG1a cells, flow cytometry, E:T 10:1” value was found to be 8.1e-11 M. Moreover, the “EC50 (M), human IL-6 secretion during redirected human T cell mediated killing of CD123 positive MOLM-13 cells (ELISA)” value with human CD123 [6] amounted to 2.3e-11 M. Also, the “EC50 (M), human IFN-γ secretion during redirected human T cell mediated killing of CD123 positive MOLM-13 cells (ELISA)” value with human CD123 [7] was determined as 3.4e-10 M. In the test with human CD123 [8], the “EC50 (M), redirected cynomolgus T cell mediated killing of MOLM-13 cells, flow cytometry, E:T 10:1” value was found to be 2.9e-11 M and the “EC50 (M), redirected human T cell mediated killing of MOLM-13 cells, flow cytometry, E:T 10:1” value is 2e-11 M.

B4: T017000128 (bispecific antibody)
chain: DVQLVESGGGLVQPGGSLRLSCVASGDVHKINFLGWYRQAPGKEREKVAHISIGDQTDYADSAKGRFTISRDESKNMVYLQMNSLKPEDTAVYFCRAFSRIYPYDYWGQGTLVTVSSGGGGSGGGGSGGGGSGGGGSGGGGSGGGGSGGGGSEVQLVESGGGLVQAGGSLRLSCAASGITSKINDMGWYRQTPGNYREWVASITATGTTNYRDSVKGRFTISRDNAKSTVYLQMNSLKPEDTTVYYCNTFPPISNFWGQGTLVTVSSA
notes: Multispecific Nanobody polypeptide expressed in Pichia
The term IC50 denotes the point on the concentration scale where inhibition reaches its midpoint. A lower IC50 goes with greater potency. Regarding B4, in test [9], the “% lysis, redirected human T cell mediated killing of MOLM-13 cells, flow cytometry, E:T 10:1” value is 20% and the “EC50 (M), redirected human T cell mediated killing of MOLM-13 cells, flow cytometry, E:T 10:1” value was 1.5e-10 M. For the same molecule, in test [10], the IC50 stood at 5.8 nM. Also, the IC50 in test [11] worked out at 31 nM. In test [12], the IC50 came to 630 nM. Moreover, in test [13], the “% lysis, redirected cyno T cell mediated killing of KG1a cells, flow cytometry” value was determined as 38% and the “EC50 (M), redirected cyno T cell mediated killing of KG1a cells, flow cytometry” value was 3.2e-10 M. For the same molecule, in [14], the “% lysis, redirected cyno T cell mediated killing of MOLM-13 cells, flow cytometry, E:T 10:1” value was 50% and the “EC50 (M), redirected cyno T cell mediated killing of MOLM-13 cells, flow cytometry, E:T 10:1” value was 1.8e-10 M. For the same molecule, in [15], the “% lysis, redirected human T cell mediated killing of KG1a cells, flow cytometry, E:T 10:1” value came out at 28% and the “EC50 (M), redirected human T cell mediated killing of KG1a cells, flow cytometry, E:T 10:1” value was 8.7e-10 M. Further, the “EC50 (M), human IL-6 secretion during human T cell mediated killing of CD123 transfected adherent target cells” value in [16] was 6.9e-11 M. Further, the IC50 in test [17] came out at 3.1 nM. In addition, in [18], the “EC50 (M), IFN-γ secretion by cynomolgus T cells during killing of CD123 transfected adherent target cells” value stood at 1e-10 M and the “EC50 (M), IFN-γ secretion by human T cells during killing of CD123 transfected adherent target cells” value was 8.6e-11 M.
